Experimental data from patent publication US20080027006A1.
Read-outs that look alike come from different tables or passages of the source.

Key:
[1] = molecular target: HR-C1 (1147-1185) (SARS coronavirus (Urbani strain))
[2] = molecular target: HR-C1 (1147-1185) (SARS coronavirus (Urbani strain)); test: SEC of equimolar mixture (Superdex 75)
[3] = molecular target: HR-C1 (1147-1185) (SARS coronavirus (Urbani strain)); test: CD thermal denaturation of the mixture at 222 nm
[4] = molecular target: HR-C1 (1147-1185) (SARS coronavirus (Urbani strain)); test: CD at 222 nm of the peptide mixture, 22 °C, 0.05 M K2PO4 buffer
[5] = molecular target: HR-C2 (1165-1185) (SARS coronavirus (Urbani strain))
[6] = molecular target: HR-C3 (1158-1185) (SARS coronavirus (Urbani strain))
[7] = molecular target: HR-C4 (1151-1185) (SARS coronavirus (Urbani strain))

Binder	[θ]222 observed (degrees·cm^2·dmol^-1) [1]	T1/2 of the complex [1] [°C]	other results
QKQIANQFNKAISQIQESLTTTSTALGKLQDVVNQ (modifications not checked) [HR-N8 (902-936)]	-7900		
FNKAISQIQESLTTTSTALGKLQDVVNQNAQALNT (modifications not checked) [HR-N9 (909-943)]	-10800	36	higher molecular weight complex, percent of observed SEC area units [2]: 30%; rise of T1/2 relative to HR-C1 alone [3]: 3 °C
MQMAYRFNGIGVTQNVLYENQKQIANQFNKAISQI (modifications not checked) [HR-N5 (882-916)]			[θ]222 observed (degrees·cm^2·dmol^-1) [4]: -8500
HR-N2 (916-973) (modifications not checked) peptide: IQESLTTTSTALGKLQDVVNQNAQALNTLVKQLSSNFGAISSVLNDILSRLDKVEAEV	-17900	74	rise of T1/2 relative to HR-N2 alone [3]: 6 °C
TSTALGKLQDVVNQNAQALNTLVKQLSSNFGAISS (modifications not checked) [HR-N11 (923-957)]	-8000		
FNGIGVTQNVLYENQKQIANQFNKAISQIQESLTT (modifications not checked) [HR-N6 (888-922)]	-8600		
IQESLTTTSTALGKLQDVVNQNAQALNTLVKQLSS (modifications not checked) [HR-N10 (916-950)]	-17700	57	[θ]222 observed (degrees·cm^2·dmol^-1) [5]: -3800; [θ]222 observed (degrees·cm^2·dmol^-1) [6]: -4900; T1/2 of the complex [7]: 56 °C; [θ]222 observed (degrees·cm^2·dmol^-1) [7]: -17900; increase of T1/2 from HR-C1 [3]: 24 °C
QNVLYENQKQIANQFNKAISQIQESLTTTSTALGK (modifications not checked) [HR-N7 (895-929)]	-7400		
